These are literature values, as cited in paper PMC7529620.

pKd: −log10 of the molar value.

The data set deals with NCAM/GFRα1 (Homo sapiens) (UniProt P13591).
Chain of UniProt P13591 (P13591 20-718, chain 1 of 2): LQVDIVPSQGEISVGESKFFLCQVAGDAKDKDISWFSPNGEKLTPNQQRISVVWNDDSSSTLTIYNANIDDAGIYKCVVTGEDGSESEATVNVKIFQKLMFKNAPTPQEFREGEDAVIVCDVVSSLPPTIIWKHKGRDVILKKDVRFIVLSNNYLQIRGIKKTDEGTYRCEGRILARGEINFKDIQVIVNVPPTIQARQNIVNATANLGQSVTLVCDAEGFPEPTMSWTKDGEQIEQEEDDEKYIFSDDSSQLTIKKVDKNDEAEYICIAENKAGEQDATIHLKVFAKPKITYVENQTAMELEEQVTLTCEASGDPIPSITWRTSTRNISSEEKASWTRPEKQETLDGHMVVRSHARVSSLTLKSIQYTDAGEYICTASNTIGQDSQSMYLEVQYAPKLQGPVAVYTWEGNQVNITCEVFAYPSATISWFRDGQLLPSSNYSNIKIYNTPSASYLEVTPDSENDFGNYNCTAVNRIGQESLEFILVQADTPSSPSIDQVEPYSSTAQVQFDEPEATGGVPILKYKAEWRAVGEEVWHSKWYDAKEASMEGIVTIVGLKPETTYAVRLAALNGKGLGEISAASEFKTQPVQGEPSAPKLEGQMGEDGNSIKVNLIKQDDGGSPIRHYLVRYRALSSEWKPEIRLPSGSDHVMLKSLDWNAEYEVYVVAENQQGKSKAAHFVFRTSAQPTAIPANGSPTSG
Chain of UniProt P13591 (P56159 25-429, chain 2 of 2, further chain): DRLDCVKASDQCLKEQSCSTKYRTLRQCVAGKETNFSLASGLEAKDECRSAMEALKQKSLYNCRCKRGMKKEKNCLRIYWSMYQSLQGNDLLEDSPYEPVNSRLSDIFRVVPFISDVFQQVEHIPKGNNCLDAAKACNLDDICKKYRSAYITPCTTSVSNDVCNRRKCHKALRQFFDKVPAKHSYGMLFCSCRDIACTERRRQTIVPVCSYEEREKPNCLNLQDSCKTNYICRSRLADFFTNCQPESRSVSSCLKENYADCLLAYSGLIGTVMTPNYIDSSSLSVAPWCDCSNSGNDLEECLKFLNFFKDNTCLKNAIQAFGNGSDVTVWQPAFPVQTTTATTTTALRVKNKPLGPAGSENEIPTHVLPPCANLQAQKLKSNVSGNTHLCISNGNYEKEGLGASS

Consider GDNF (from UniProt P39905), for which the pKd is 9.00.
